From patent US20250019439A1 (Adimab, published 2025) come the findings set out here.

The target of test [1] is T1, ADI-26906 IgG.
T1 construct: anti-CD3 IgG
The test is described as follows: BLI; tip anti-CD3 IgG, solution ADI-34145 Fab. The procedure:
(§1) ForteBio affinity measurements were performed generally as previously described (Estep et al., MAbs. 2013 5(2):270-8). Briefly, ForteBio affinity measurements were performed by loading antibody IgG or Fabs on-line onto AHC sensors. Sensors were equilibrated off-line in assay buffer for 30 minutes and then monitored on-line for 60 seconds for baseline establishment. For avid binding measurement, sensors with loaded antibodies were exposed to IgG or Fab solutions for 3 minutes, afterwards they were transferred to assay buffer for 3 minutes for off-rate measurement. Kinetics data were fit using a 1:1 binding model in the data analysis software provided by ForteBio to obtain equilibrium dissociation constant (KD=koff/kₒₙ) values. In each column, tip-immobilized antibodies are listed first and solution antibodies second.
(§2) CTL-19613 is an IgG1 antibody prepared with anti-CD3 variable domains corresponding with those of clone 12C described in United States Publication Number US 2010/0183615 (e.g., see paragraphs 469-479 and FIG. 25 thereof), which also make up the CD3 binding domain of the bispecific antibody pasotuxizumab. […] In each column, tip-immobilized antibodies are listed first and solution antibodies second.

The target of test [2] is CTL-19613 IgG. Description: BLI; tip anti-CD3 IgG, solution ADI-34145 Fab. The procedure: as §1, §2
(Biolayer interferometry detects binding as a change in optical thickness at a sensor tip.)

The target of test [3] is T2, ADI-22523 IgG.
T2 construct: anti-CD3 IgG
Description: BLI; tip anti-CD3 IgG, solution ADI-34145 Fab. The procedure:
as §1, §2

Another test concerns the target T3, CTL-19672 IgG.
T3 construct: IgG1 with the anti-CD3 variable domains of clone 38E4v1
Description: BLI; tip anti-CD3 IgG, solution ADI-34145 Fab. The procedure:
as §1, §2

The target of test [4] is T4, ADI-26920 IgG.
T4 construct: anti-CD3 IgG
Description: BLI; tip anti-CD3 IgG, solution ADI-34145 Fab. The procedure: as §1, §2

Test [5] has as its target T5, ADI-26916 IgG.
T5 construct: anti-CD3 IgG
The test is described as follows: BLI; tip anti-CD3 IgG, solution ADI-34145 Fab. The procedure:
as §1, §2

Test [6] addresses T6, ADI-26913 IgG.
T6 construct: anti-CD3 IgG
The test is described as follows: BLI; tip anti-CD3 IgG, solution ADI-34145 Fab. The procedure:
as §1, §2

Test [7] addresses T7, ADI-26906 anti-CD3 bsIgG.
T7 construct: anti-HER2 IgG with one Fab arm replaced by the anti-CD3 scFv (printed 'Vx-VH', read as VL-VH); S354C and Y349C mutations; also called anti-CD3 bsIgG (ADI-26906 scFv); not shown: scFv linker; anti-HER2 Fab arm (heavy and light chain); hinge and Fc with S354C/Y349C
Description: BLI; tip anti-CD3 bsIgG, solution ADI-34145 Fab. The procedure:
as §1
(§3) Additional analysis was conducted using bispecific antibody formats incorporating anti-CD3 antibody variable domains. Bispecific antibodies were prepared using standard IgG formats (bsIgG) with replacement of Fab arms with anti-CD3 scFvs in Vx-VH orientation and with S354C and Y349C mutations for disulfide stabilization. Antibodies used for Fab arm replacement were anti-HER2 IgG antibodies, with one Fab arm from each replaced by a scFv corresponding to a different anti-CD3 antibody. […] In each column, tip-immobilized antibodies are listed first and solution antibodies second. Anti-CD3 antibodies associated with incorporated scFvs are listed by antibody number.

Test [8] addresses T8, ADI-26920 anti-CD3 bsIgG.
T8 construct: anti-HER2 IgG with one Fab arm replaced by the anti-CD3 scFv (printed 'Vx-VH', read as VL-VH); S354C and Y349C mutations; also called anti-CD3 bsIgG (ADI-26920 scFv); not shown: scFv linker; anti-HER2 Fab arm (heavy and light chain); hinge and Fc with S354C/Y349C
Description: BLI; tip anti-CD3 bsIgG, solution ADI-34145 Fab. The procedure:
as §1, §3

For another test, the target named is T9, CTL-19672 anti-CD3 bsIgG (In the assay the two domains were one scFv (VL-VH orientation, linker not given). It replaced one Fab arm of an anti-HER2 IgG; S354C and Y349C mutations are stated for disulfide stabilization.).
T9 construct: anti-HER2 IgG with one Fab arm replaced by the anti-CD3 scFv (printed 'Vx-VH', read as VL-VH); S354C and Y349C mutations; not shown: scFv linker between VL and VH; anti-HER2 heavy and light chains of the other arm; hinge and Fc (with S354C / Y349C)
The test is described as follows: BLI; tip anti-CD3 bsIgG, solution ADI-34145 Fab. The procedure:
as §1, §3

Test [9] deals with T10, CTL-19613 anti-CD3 bsIgG (In the assay the two domains were one scFv (VL-VH orientation, linker not given). It replaced one Fab arm of an anti-HER2 IgG; S354C and Y349C mutations are stated for disulfide stabilization.).
T10 construct: anti-HER2 IgG with one Fab arm replaced by the anti-CD3 scFv (printed 'Vx-VH', read as VL-VH); S354C and Y349C mutations; also called anti-CD3 bsIgG (CTL-19613 scFv); not shown: scFv linker between VL and VH; anti-HER2 heavy and light chains of the other arm; hinge and Fc (with S354C / Y349C)
Description: BLI; tip anti-CD3 bsIgG, solution ADI-34145 Fab. The procedure: as §1, §3

In test [10] the target is T11, ADI-26913 anti-CD3 bsIgG.
T11 construct: anti-HER2 IgG with one Fab arm replaced by the anti-CD3 scFv (printed 'Vx-VH', read as VL-VH); S354C and Y349C mutations; also called anti-CD3 bsIgG (ADI-26913 scFv); not shown: scFv linker; anti-HER2 Fab arm (heavy and light chain); hinge and Fc with S354C/Y349C
Description: BLI; tip anti-CD3 bsIgG, solution ADI-34145 Fab. The procedure: as §1, §3

For a further test, the target named is T12, ADI-26928 anti-CD3 bsIgG.
T12 construct: anti-HER2 IgG with one Fab arm replaced by the anti-CD3 scFv (printed 'Vx-VH', read as VL-VH); S354C and Y349C mutations; also called anti-CD3 bsIgG (ADI-26928 scFv); not shown: scFv linker; anti-HER2 Fab arm (heavy and light chain); hinge and Fc with S354C/Y349C
Description: BLI; tip anti-CD3 bsIgG, solution ADI-34134 Fab. The procedure: as §1, §3

The next test concerns the target T13, ADI-26927 anti-CD3 bsIgG.
T13 construct: anti-HER2 IgG with one Fab arm replaced by the anti-CD3 scFv (printed 'Vx-VH', read as VL-VH); S354C and Y349C mutations; also called anti-CD3 bsIgG (ADI-26927 scFv); not shown: scFv linker; anti-HER2 Fab arm (heavy and light chain); hinge and Fc with S354C/Y349C
The test is described as follows: BLI; tip anti-CD3 bsIgG, solution ADI-34134 Fab. The procedure: as §1, §3

The target of a further test is T14, ADI-26921 anti-CD3 bsIgG.
T14 construct: anti-HER2 IgG with one Fab arm replaced by the anti-CD3 scFv (printed 'Vx-VH', read as VL-VH); S354C and Y349C mutations; also called anti-CD3 bsIgG (ADI-26921 scFv); not shown: scFv linker; anti-HER2 Fab arm (heavy and light chain); hinge and Fc with S354C/Y349C
Description: BLI; tip anti-CD3 bsIgG, solution ADI-34134 Fab. The procedure:
as §1, §3

The target of test [11] is T7, ADI-26906 anti-CD3 bsIgG. The test is described as follows: BLI; tip anti-CD3 bsIgG, solution ADI-34134 Fab. The procedure:
as §1, §3

Test [12] concerns the target T8, ADI-26920 anti-CD3 bsIgG. The test is described as follows: BLI; tip anti-CD3 bsIgG, solution ADI-34134 Fab. The procedure: as §1, §3
The target in test [13] is T10, CTL-19613 anti-CD3 bsIgG. The test is described as follows: BLI; tip anti-CD3 bsIgG, solution ADI-34134 Fab. The procedure:
as §1, §3

A further test deals with T15, ADI-22523 anti-CD3 bsIgG (In the assayed molecule VL and VH are joined as one scFv (printed 'Vx-VH' orientation) by an undisclosed linker and fused to an Fc, paired with an anti-HER2 half-IgG. They are given here as two …).
T15 construct: anti-HER2 IgG with one Fab arm replaced by the anti-CD3 scFv (printed 'Vx-VH', read as VL-VH); S354C and Y349C mutations; not shown: scFv linker between VL and VH; anti-HER2 heavy and light chains; hinge and Fc with S354C/Y349C
The test is described as follows: BLI; tip anti-CD3 bsIgG, solution ADI-34134 Fab. The procedure:
as §1, §3

Test [14] addresses T11, ADI-26913 anti-CD3 bsIgG. Description: BLI; tip anti-CD3 bsIgG, solution ADI-34134 Fab. The procedure: as §1, §3
Test [15] has as its target T1, ADI-26906 IgG. The test is described as follows: BLI; tip anti-CD3 IgG, solution ADI-34134 Fab. The procedure:
as §1, §2

The target in test [16] is CTL-19613 IgG. Description: BLI; tip anti-CD3 IgG, solution ADI-34134 Fab. The procedure: as §1, §2
The target in test [17] is T2, ADI-22523 IgG. The test is described as follows: BLI; tip anti-CD3 IgG, solution ADI-34134 Fab. The procedure:
as §1, §2

The target of test [18] is T4, ADI-26920 IgG. Description: BLI; tip anti-CD3 IgG, solution ADI-34134 Fab. The procedure: as §1, §2
Test [19] concerns the target T5, ADI-26916 IgG. The test is described as follows: BLI; tip anti-CD3 IgG, solution ADI-34134 Fab. The procedure: as §1, §2
In a further test the target is T16, ADI-26921 IgG.
T16 construct: anti-CD3 IgG
Description: BLI; tip anti-CD3 IgG, solution ADI-34134 Fab. The procedure: as §1, §2

A further test addresses T17, ADI-26927 IgG.
T17 construct: anti-CD3 IgG
Description: BLI; tip anti-CD3 IgG, solution ADI-34134 Fab. The procedure:
as §1, §2

In test [20] the target is T6, ADI-26913 IgG. Description: BLI; tip anti-CD3 IgG, solution ADI-34134 Fab. The procedure: as §1, §2
The target in a further test is T18, ADI-26941 IgG.
T18 construct: anti-CD3 IgG
Description: BLI; tip anti-CD3 IgG, solution ADI-34134 Fab. The procedure: as §1, §2

The target of a further test is T19, ADI-26928 IgG.
T19 construct: anti-CD3 IgG
Description: BLI; tip anti-CD3 IgG, solution ADI-34134 Fab. The procedure:
as §1, §2

T5 sequence (VH, as listed by the source, chain 1 of 2): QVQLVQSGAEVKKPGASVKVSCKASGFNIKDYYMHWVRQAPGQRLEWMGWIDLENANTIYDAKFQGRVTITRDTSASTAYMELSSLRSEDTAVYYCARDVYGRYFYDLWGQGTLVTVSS
T5 sequence (VL, as listed by the source, chain 2 of 2): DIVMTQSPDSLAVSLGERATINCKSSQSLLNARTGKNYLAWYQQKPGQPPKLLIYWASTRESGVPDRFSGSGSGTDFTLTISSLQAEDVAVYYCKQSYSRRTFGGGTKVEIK
T8 sequence (VH, as listed by the source limits assumed, chain 1 of 2): as the sequence (VH, as listed by the source, chain 1 of 2) above, with A97G, V100A, L108V counted along it
T8 sequence (VL, as listed by the source limits assumed, chain 2 of 2): as the sequence (VL, as listed by the source, chain 2 of 2) above, with R100L counted along it
T4 sequence (VH, as listed by the source limits assumed, chain 1 of 2): as the sequence (VH, as listed by the source, chain 1 of 2) above, with A97G, V100A, L108V counted along it
T4 sequence (VL, as listed by the source limits assumed, chain 2 of 2): as the sequence (VL, as listed by the source, chain 2 of 2) above, with R100L counted along it
T7 sequence (VH, as listed by the source limits assumed, chain 1 of 2): as the sequence (VH, as listed by the source, chain 1 of 2) above, with V100A, L108V counted along it
T7 sequence (VL, as listed by the source limits assumed, chain 2 of 2): as the sequence (VL, as listed by the source, chain 2 of 2) above
T1 sequence (VH, as listed by the source limits assumed, chain 1 of 2): as the sequence (VH, as listed by the source, chain 1 of 2) above, with V100A, L108V counted along it
T1 sequence (VL, as listed by the source limits assumed, chain 2 of 2): as the sequence (VL, as listed by the source, chain 2 of 2) above
T11 sequence (VH, as listed by the source limits assumed, chain 1 of 2): as the sequence (VH, as listed by the source, chain 1 of 2) above, with V100Q, L108V counted along it
T11 sequence (VL, as listed by the source limits assumed, chain 2 of 2): as the sequence (VL, as listed by the source, chain 2 of 2) above
T6 sequence (VH, as listed by the source limits assumed, chain 1 of 2): as the sequence (VH, as listed by the source, chain 1 of 2) above, with V100Q, L108V counted along it
T6 sequence (VL, as listed by the source limits assumed, chain 2 of 2): as the sequence (VL, as listed by the source, chain 2 of 2) above
T2 sequence (VH, as listed by the source limits assumed, chain 1 of 2): as the sequence (VH, as listed by the source, chain 1 of 2) above, with A56G, A62P, V100G, L108V counted along it
T2 sequence (VL, as listed by the source limits assumed, chain 2 of 2): as the sequence (VL, as listed by the source, chain 2 of 2) above, with A32S counted along it
T17 sequence (VH, as listed by the source limits assumed, chain 1 of 2): as the sequence (VH, as listed by the source, chain 1 of 2) above, with N55E, A56G, V100R, R103A, L108V counted along it
T17 sequence (VL, as listed by the source limits assumed, chain 2 of 2): as the sequence (VL, as listed by the source, chain 2 of 2) above, with R100L counted along it
T13 sequence (VH, as listed by the source limits assumed, chain 1 of 2): as the sequence (VH, as listed by the source, chain 1 of 2) above, with N55E, A56G, V100R, R103A, L108V counted along it
T13 sequence (VL, as listed by the source limits assumed, chain 2 of 2): as the sequence (VL, as listed by the source, chain 2 of 2) above, with R100L counted along it
T14 sequence (VH, as listed by the source limits assumed, chain 1 of 2): as the sequence (VH, as listed by the source, chain 1 of 2) above, with N55E, A56G, V100A, L108V counted along it
T14 sequence (VL, as listed by the source limits assumed, chain 2 of 2): as the sequence (VL, as listed by the source, chain 2 of 2) above, with R100L counted along it
T16 sequence (VH, as listed by the source limits assumed, chain 1 of 2): as the sequence (VH, as listed by the source, chain 1 of 2) above, with N55E, A56G, V100A, L108V counted along it
T16 sequence (VL, as listed by the source limits assumed, chain 2 of 2): as the sequence (VL, as listed by the source, chain 2 of 2) above, with R100L counted along it
T18 sequence (VH, as listed by the source limits assumed, chain 1 of 2): as the sequence (VH, as listed by the source, chain 1 of 2) above, with N55E, A56G, V100Q, L108V counted along it
T18 sequence (VL, as listed by the source limits assumed, chain 2 of 2): as the sequence (VL, as listed by the source, chain 2 of 2) above, with R100I counted along it
T12 sequence (VH, as listed by the source limits assumed, chain 1 of 2): as the sequence (VH, as listed by the source, chain 1 of 2) above, with N55E, A56G, A97G, V100A, R103L, L108V counted along it
T12 sequence (VL, as listed by the source limits assumed, chain 2 of 2): as the sequence (VL, as listed by the source, chain 2 of 2) above, with R100L counted along it
T19 sequence (VH, as listed by the source limits assumed, chain 1 of 2): as the sequence (VH, as listed by the source, chain 1 of 2) above, with N55E, A56G, A97G, V100A, R103L, L108V counted along it
T19 sequence (VL, as listed by the source limits assumed, chain 2 of 2): as the sequence (VL, as listed by the source, chain 2 of 2) above, with R100L counted along it
T9 sequence (VH, as listed by the source limits assumed, chain 1 of 2): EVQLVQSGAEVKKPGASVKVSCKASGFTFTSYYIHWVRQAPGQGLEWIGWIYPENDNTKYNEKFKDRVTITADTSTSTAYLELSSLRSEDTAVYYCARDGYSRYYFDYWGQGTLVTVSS
T9 sequence (VL, as listed by the source limits assumed, chain 2 of 2): as the sequence (VL, as listed by the source, chain 2 of 2) above, with A32S, G35R, P49S, A57T, E61K, Y98F, S99I, R100L, G105Q counted along it
T3 sequence (VL, as listed by the source limits assumed, chain 2 of 2): as the sequence (VL, as listed by the source, chain 2 of 2) above, with A32S, G35R, P49S, A57T, E61K, Y98F, S99I, R100L, G105Q counted along it
T15 sequence (VH, as listed by the source limits assumed, chain 1 of 2): as the sequence (VH, as listed by the source, chain 1 of 2) above, with A56G, A62P, V100G, L108V counted along it
T15 sequence (VL, as listed by the source limits assumed, chain 2 of 2): as the sequence (VL, as listed by the source, chain 2 of 2) above, with A32S counted along it

B1: ADI-34145 Fab (Fab, V domains shown)
VH: EVQLLESGGGLVQPGGSLRLSCAASGFTFSSYAMSWVRQAPGKGLEWVSTISGSGGSTYYADSVKGRFTISRDNSKNTLYLQMNSLRAEDTAVYYCARLGGRRGSGSSYYYYYGMDVWGQGTTVTVSS
VL: not shown
notes: Fab made by papain digestion of the IgG
For orientation: Kd means the concentration at which binding is half-saturated. Lower therefore signals higher affinity. For the molecule B1, the Kd in the test with ADI-26906 IgG [1] was 3.25 nM; in the test with ADI-22523 IgG [3], 3.22 nM; in the test with ADI-26920 IgG [4] it was 8.97 nM; with ADI-26916 IgG [5], 19.4 nM; with ADI-26913 IgG [6] it was 3.15 nM; in the test with ADI-26906 anti-CD3 bsIgG [7], 24.4 nM. The equilibrium dissociation constant (Kd) with ADI-26920 anti-CD3 bsIgG [8] stood at 93.8 nM; with ADI-26913 anti-CD3 bsIgG [10], 159 nM. Moreover, the binding result with CTL-19613 IgG [2], with CTL-19672 IgG, in the test with CTL-19672 anti-CD3 bsIgG and in the test with CTL-19613 anti-CD3 bsIgG [9] was “no binding” each time.

B2: ADI-34134 Fab (Fab, V domains shown)
VH: QVQLVQSGAEVKKPGSSVKVSCKASGGTFSSYAISWVRQAPGQGLEWMGGIIPIFGTANYAQKFQGRVTITADESTSTAYMELSSLRSEDTAVYYCARGAPNYYGSGGYDDGWFDPWGQGTLVTVSS
VL: EIVLTQSPGTLSLSPGERATLSCRASQSVSSDYLAWYQQKPGQAPRLLIYGASSRATGIPDRFSGSGSGTDFTLTISRLEPEDFAVYYCQQFGRVPTFGGGTKVEIK
notes: as for B1
With B2, the Kd is 110 nM with ADI-26928 anti-CD3 bsIgG; 48.9 nM with ADI-26927 anti-CD3 bsIgG; 37.1 nM with ADI-26921 anti-CD3 bsIgG; 27.2 nM in the test with ADI-26906 anti-CD3 bsIgG [11]; 28.7 nM in the test with ADI-26920 anti-CD3 bsIgG [12]; 10.9 nM with ADI-22523 anti-CD3 bsIgG. Moreover, the Kd with ADI-26913 anti-CD3 bsIgG [14] is 74.2 nM; with ADI-26906 IgG [15], 17.8 nM; with ADI-22523 IgG [17] it was 5.68 nM; with ADI-26920 IgG [18], 31 nM; with ADI-26916 IgG [19], 157 nM; with ADI-26921 IgG, 56.5 nM. Further, the Kd with ADI-26927 IgG stood at 38.2 nM; in the test with ADI-26913 IgG [20] it was 79.8 nM; in the test with ADI-26941 IgG, 138 nM; in the test with ADI-26928 IgG, 185 nM. The binding result with CTL-19613 anti-CD3 bsIgG [13] and in the test with CTL-19613 IgG [16] was “no binding” in each case.
